This is an account of results in publication PMC10439114.

In this assay the target is T1, CD155 with a C-terminal V5 epitope tag, on Raji cells (UniProt P15151).
T1 sequence: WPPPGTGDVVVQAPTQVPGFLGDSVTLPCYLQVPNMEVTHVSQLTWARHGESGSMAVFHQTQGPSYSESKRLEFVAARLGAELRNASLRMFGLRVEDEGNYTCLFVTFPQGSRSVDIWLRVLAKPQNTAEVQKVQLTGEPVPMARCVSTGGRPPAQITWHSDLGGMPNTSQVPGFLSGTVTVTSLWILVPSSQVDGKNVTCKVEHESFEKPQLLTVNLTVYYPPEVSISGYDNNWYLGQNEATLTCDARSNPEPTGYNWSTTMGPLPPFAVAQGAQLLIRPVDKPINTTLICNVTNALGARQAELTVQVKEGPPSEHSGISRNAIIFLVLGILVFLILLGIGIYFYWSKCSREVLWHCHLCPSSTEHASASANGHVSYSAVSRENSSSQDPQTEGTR

B1: TIGIT-SNAP (wild-type TIGIT with a C-terminal SNAP-tag, on Jurkat cells) (receptor)
chain: MMTGTIETTGNISAEKGGSIILQCHLSSTTAQVTQVNWEQQDQLLAICNADLGWHISPSFKDRVAPGPGLGLTLQSLTVNDTGEYFCIYHTYPDGTYTGRIFLEVLESSVAEHGARFQIPLLGAMAATLVVICTAVIVVVALTRKKKALRIHSVEGDLRRKSAGQEEWSPSAPSPPGSCVQAEAAPAGLCGEQRGEDCAELHDYFNVLSYRSLGNCSFFTETG
As for B1, the IL-2 release of Jurkat TIGIT-SNAP cells after 6 h with SEE-pulsed Raji-CD155 relative to Raji-CD111 co-cultures (ELISA) worked out at 37% and the log2-fold decrease of IL-2 release of Jurkat TIGIT-SNAP cells with SEE-pulsed Raji-CD155 against Raji-CD111 (ELISA) was 1.45 log2 fold.
